Data on one substance can be found in patent EP1117807B1.

In this experiment the target is HMW protein antigen of the anti-HMW EIA. Nature of the experiment: antigen-specific EIA, control chinchilla serum IgG titer on coated antigen, second experiment.

As to “serum of control chinchillas immunized with alum alone (antibody)”, the Anti-HMW antibody titers Log2 (Titers/100) (Log2 (Titers/100)) was less than 0.05.
